*1 amine or outer side, *2 acyl side, *3 side chain or, on linkers, in order; H or OH if unused. Side-chain parts run from the residue outwards. The star is where a group is joined. C18 diacid = O=C(O)CCCCCCCCCCCCCCCCC(=O)*; γGlu = O=C(O)[C@H](CCC(=O)[*:2])N[*:1]; Isovaleryl = CC(C)CC(=O)*; Ahx = NCCCCCC(=O)O
T1: human NPY2 receptor (human, UniProt P49146 1-381)
T1 construct: whole, on cells; also called hNPY2-R; hNPY2R
T1 sequence (looked up): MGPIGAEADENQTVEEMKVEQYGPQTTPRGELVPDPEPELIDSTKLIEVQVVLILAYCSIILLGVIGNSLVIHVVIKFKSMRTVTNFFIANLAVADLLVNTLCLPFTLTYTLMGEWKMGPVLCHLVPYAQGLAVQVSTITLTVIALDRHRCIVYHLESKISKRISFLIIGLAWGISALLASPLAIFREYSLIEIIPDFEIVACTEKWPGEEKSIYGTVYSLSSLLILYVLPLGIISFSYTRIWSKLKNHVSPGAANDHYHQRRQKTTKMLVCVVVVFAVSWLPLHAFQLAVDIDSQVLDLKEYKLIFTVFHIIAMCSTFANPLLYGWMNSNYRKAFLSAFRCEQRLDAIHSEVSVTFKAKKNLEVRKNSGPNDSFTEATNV


Each binder was assayed against T1, human NPY2 receptor (assay: RLB: displacement of 125I-PYY(1-36) from hNPY2R membranes).

Ki	Binder
1.68 nM	Isovaleryl-APEK([Ahx-γGlu-C18 diacid])PEEDSSPEELQRYYVALRHYYNWLTRQRY-NH2 (SMILES CC(C)CC(=O)N[C@@H](C)C(=O)N1CCC[C@H]1C(=O)N[C@@H](CCC(=O)O)C(=O)N[C@@H](CCCCNC(=O)CCCCCNC(=O)CC[C@H](NC(=O)CCCCCCCCCCCCCCCCC(=O)O)C(=O)O)C(=O)N1CCC[C@H]1C(=O)N[C@@H](CCC(=O)O)C(=O)N[C@@H](CCC(=O)O)C(=O)N[C@@H](CC(=O)O)C(=O)N[C@@H](CO)C(=O)N[C@@H](CO)C(=O)N1CCC[C@H]1C(=O)N[C@@H](CCC(=O)O)C(=O)N[C@@H](CCC(=O)O)C(=O)N[C@@H](CC(C)C)C(=O)N[C@@H](CCC(N)=O)C(=O)N[C@@H](CCCNC(=N)N)C(=O)N[C@@H](Cc1ccc(O)cc1)C(=O)N[C@@H](Cc1ccc(O)cc1)C(=O)N[C@H](C(=O)N[C@@H](C)C(=O)N[C@@H](CC(C)C)C(=O)N[C@@H](CCCNC(=N)N)C(=O)N[C@@H](Cc1c[nH]cn1)C(=O)N[C@@H](Cc1ccc(O)cc1)C(=O)N[C@@H](Cc1ccc(O)cc1)C(=O)N[C@@H](CC(N)=O)C(=O)N[C@@H](Cc1c[nH]c2ccccc12)C(=O)N[C@@H](CC(C)C)C(=O)N[C@H](C(=O)N[C@@H](CCCNC(=N)N)C(=O)N[C@@H](CCC(N)=O)C(=O)N[C@@H](CCCNC(=N)N)C(=O)N[C@@H](Cc1ccc(O)cc1)C(N)=O)[C@@H](C)O)C(C)C, printed structure identical to Compound 24) [Compound 151]
3.71 nM	Isovaleryl-APEK([Ahx-γGlu-C18 diacid])PEEAATPEEIQRYYVALRHYYNWLTRQRY-NH2 (SMILES CC[C@H](C)[C@H](NC(=O)[C@H](CCC(=O)O)NC(=O)[C@H](CCC(=O)O)NC(=O)[C@@H]1CCCN1C(=O)[C@@H](NC(=O)[C@H](C)NC(=O)[C@H](C)NC(=O)[C@H](CCC(=O)O)NC(=O)[C@H](CCC(=O)O)NC(=O)[C@@H]1CCCN1C(=O)[C@H](CCCCNC(=O)CCCCCNC(=O)CC[C@H](NC(=O)CCCCCCCCCCCCCCCCC(=O)O)C(=O)O)NC(=O)[C@H](CCC(=O)O)NC(=O)[C@@H]1CCCN1C(=O)[C@H](C)NC(=O)CC(C)C)[C@@H](C)O)C(=O)N[C@@H](CCC(N)=O)C(=O)N[C@@H](CCCNC(=N)N)C(=O)N[C@@H](Cc1ccc(O)cc1)C(=O)N[C@@H](Cc1ccc(O)cc1)C(=O)N[C@H](C(=O)N[C@@H](C)C(=O)N[C@@H](CC(C)C)C(=O)N[C@@H](CCCNC(=N)N)C(=O)N[C@@H](Cc1c[nH]cn1)C(=O)N[C@@H](Cc1ccc(O)cc1)C(=O)N[C@@H](Cc1ccc(O)cc1)C(=O)N[C@@H](CC(N)=O)C(=O)N[C@@H](Cc1c[nH]c2ccccc12)C(=O)N[C@@H](CC(C)C)C(=O)N[C@H](C(=O)N[C@@H](CCCNC(=N)N)C(=O)N[C@@H](CCC(N)=O)C(=O)N[C@@H](CCCNC(=N)N)C(=O)N[C@@H](Cc1ccc(O)cc1)C(N)=O)[C@@H](C)O)C(C)C) [Compound 154]
1.32 nM	Isovaleryl-APEK([Ahx-γGlu-C18 diacid])PEEDATPEETQRYYVSLRHYYNWLTRQRY-NH2 (SMILES CC(C)CC(=O)N[C@@H](C)C(=O)N1CCC[C@H]1C(=O)N[C@@H](CCC(=O)O)C(=O)N[C@@H](CCCCNC(=O)CCCCCNC(=O)CC[C@H](NC(=O)CCCCCCCCCCCCCCCCC(=O)O)C(=O)O)C(=O)N1CCC[C@H]1C(=O)N[C@@H](CCC(=O)O)C(=O)N[C@@H](CCC(=O)O)C(=O)N[C@@H](CC(=O)O)C(=O)N[C@@H](C)C(=O)N[C@H](C(=O)N1CCC[C@H]1C(=O)N[C@@H](CCC(=O)O)C(=O)N[C@@H](CCC(=O)O)C(=O)N[C@H](C(=O)N[C@@H](CCC(N)=O)C(=O)N[C@@H](CCCNC(=N)N)C(=O)N[C@@H](Cc1ccc(O)cc1)C(=O)N[C@@H](Cc1ccc(O)cc1)C(=O)N[C@H](C(=O)N[C@@H](CO)C(=O)N[C@@H](CC(C)C)C(=O)N[C@@H](CCCNC(=N)N)C(=O)N[C@@H](Cc1c[nH]cn1)C(=O)N[C@@H](Cc1ccc(O)cc1)C(=O)N[C@@H](Cc1ccc(O)cc1)C(=O)N[C@@H](CC(N)=O)C(=O)N[C@@H](Cc1c[nH]c2ccccc12)C(=O)N[C@@H](CC(C)C)C(=O)N[C@H](C(=O)N[C@@H](CCCNC(=N)N)C(=O)N[C@@H](CCC(N)=O)C(=O)N[C@@H](CCCNC(=N)N)C(=O)N[C@@H](Cc1ccc(O)cc1)C(N)=O)[C@@H](C)O)C(C)C)[C@@H](C)O)[C@@H](C)O) [Compound 152]
6.8 nM	Isovaleryl-APEK([Ahx-γGlu-C18 diacid])PEELATPEELQRYYVSLRHYYNWLTRQRY-NH2 (SMILES CC(C)CC(=O)N[C@@H](C)C(=O)N1CCC[C@H]1C(=O)N[C@@H](CCC(=O)O)C(=O)N[C@@H](CCCCNC(=O)CCCCCNC(=O)CC[C@H](NC(=O)CCCCCCCCCCCCCCCCC(=O)O)C(=O)O)C(=O)N1CCC[C@H]1C(=O)N[C@@H](CCC(=O)O)C(=O)N[C@@H](CCC(=O)O)C(=O)N[C@@H](CC(C)C)C(=O)N[C@@H](C)C(=O)N[C@H](C(=O)N1CCC[C@H]1C(=O)N[C@@H](CCC(=O)O)C(=O)N[C@@H](CCC(=O)O)C(=O)N[C@@H](CC(C)C)C(=O)N[C@@H](CCC(N)=O)C(=O)N[C@@H](CCCNC(=N)N)C(=O)N[C@@H](Cc1ccc(O)cc1)C(=O)N[C@@H](Cc1ccc(O)cc1)C(=O)N[C@H](C(=O)N[C@@H](CO)C(=O)N[C@@H](CC(C)C)C(=O)N[C@@H](CCCNC(=N)N)C(=O)N[C@@H](Cc1c[nH]cn1)C(=O)N[C@@H](Cc1ccc(O)cc1)C(=O)N[C@@H](Cc1ccc(O)cc1)C(=O)N[C@@H](CC(N)=O)C(=O)N[C@@H](Cc1c[nH]c2ccccc12)C(=O)N[C@@H](CC(C)C)C(=O)N[C@H](C(=O)N[C@@H](CCCNC(=N)N)C(=O)N[C@@H](CCC(N)=O)C(=O)N[C@@H](CCCNC(=N)N)C(=O)N[C@@H](Cc1ccc(O)cc1)C(N)=O)[C@@H](C)O)C(C)C)[C@@H](C)O) [Compound 153]
7.6 nM	Isovaleryl-APEK([Ahx-γGlu-C18 diacid])PEEDATPEELQRYYVSLRHYYNWLSRQRY-NH2 (SMILES CC(C)CC(=O)N[C@@H](C)C(=O)N1CCC[C@H]1C(=O)N[C@@H](CCC(=O)O)C(=O)N[C@@H](CCCCNC(=O)CCCCCNC(=O)CC[C@H](NC(=O)CCCCCCCCCCCCCCCCC(=O)O)C(=O)O)C(=O)N1CCC[C@H]1C(=O)N[C@@H](CCC(=O)O)C(=O)N[C@@H](CCC(=O)O)C(=O)N[C@@H](CC(=O)O)C(=O)N[C@@H](C)C(=O)N[C@H](C(=O)N1CCC[C@H]1C(=O)N[C@@H](CCC(=O)O)C(=O)N[C@@H](CCC(=O)O)C(=O)N[C@@H](CC(C)C)C(=O)N[C@@H](CCC(N)=O)C(=O)N[C@@H](CCCNC(=N)N)C(=O)N[C@@H](Cc1ccc(O)cc1)C(=O)N[C@@H](Cc1ccc(O)cc1)C(=O)N[C@H](C(=O)N[C@@H](CO)C(=O)N[C@@H](CC(C)C)C(=O)N[C@@H](CCCNC(=N)N)C(=O)N[C@@H](Cc1c[nH]cn1)C(=O)N[C@@H](Cc1ccc(O)cc1)C(=O)N[C@@H](Cc1ccc(O)cc1)C(=O)N[C@@H](CC(N)=O)C(=O)N[C@@H](Cc1c[nH]c2ccccc12)C(=O)N[C@@H](CC(C)C)C(=O)N[C@@H](CO)C(=O)N[C@@H](CCCNC(=N)N)C(=O)N[C@@H](CCC(N)=O)C(=O)N[C@@H](CCCNC(=N)N)C(=O)N[C@@H](Cc1ccc(O)cc1)C(N)=O)C(C)C)[C@@H](C)O) [Compound 155]
